The record followed here is patent US20250042994A1 (HAINAN SIMCERE ZAIMING PHARMACEUTICAL, published 2025).

Numbering of substitutions follows the chain as printed.

The labels stand for the following.
T1: human CD19 exon1-3-His tag protein (human, UniProt P15391 20-186, limits assumed)
T1 construct: membrane-distal part of the extracellular region, made in HEK293E cells; not shown: His tag
T1 sequence (looked up): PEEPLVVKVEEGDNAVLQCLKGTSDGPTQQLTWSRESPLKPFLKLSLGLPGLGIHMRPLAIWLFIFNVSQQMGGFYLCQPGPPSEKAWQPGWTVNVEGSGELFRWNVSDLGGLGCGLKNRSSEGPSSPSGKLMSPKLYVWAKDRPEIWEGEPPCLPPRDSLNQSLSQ

T2: Human CD19-his protein (human, UniProt P15391 20-291)
T2 construct: bought protein; also called recombinant human CD19-His; CD19 full-length protein; not shown: His tag
T2 sequence (looked up): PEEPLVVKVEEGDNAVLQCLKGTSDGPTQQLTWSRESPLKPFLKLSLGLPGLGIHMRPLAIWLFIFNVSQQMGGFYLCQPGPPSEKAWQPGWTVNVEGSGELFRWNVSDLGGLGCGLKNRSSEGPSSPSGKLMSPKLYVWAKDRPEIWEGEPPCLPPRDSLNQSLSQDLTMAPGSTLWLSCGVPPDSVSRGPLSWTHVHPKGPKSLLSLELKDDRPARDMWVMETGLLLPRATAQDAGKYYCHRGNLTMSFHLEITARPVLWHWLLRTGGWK

B1: F4.37.6 (antibody, human IgG1, V domains shown)
VH: QVQLQQSGAELARPGASVKLSCKASGYTFTSFWMQWLKQRPGQGLEWIGTIYPGDGDTRYTQKFKGKATLTADKSSNTAYMQLSSLASEDSAVYYCARGALSNYGGFAYWGQGTLVTVSA
VL: NIVLTQSPASLAVSLGQRATISCRASESVDSYGHSFMHWYQQKPGQPPKLLIYLASNLESGVPARFSGSGSRTDFTLTIDPVEADDAATYYCQQNNEDPWTFGGGTKLEIK
notes: human-murine chimeric antibody, human IgG1 constant
B2: F4.49.11 (antibody, human IgG1, V domains shown)
VH: DVQLRASGPGLVKPSQSLSLTCSVTGYSITSGYYWNWIRQFPGNKLEWMGCISYDGTNNYNPSLKNRISFTRDTSKNQFFLNLNSVTTEDSATYYCARRVYYRYDGVVDYWGQGTSVTVSS
VL: ENVLTQSPAIMSASPGEKVTMTCSASSSVSYIHWYQQKSSTAPKLWIYDTSKLASGVPGRFSGSRSRNSYSLTISSMEAEDVATYYCFQGSGYPLTFGSGTKLEIK
notes: as for B1
B3: F5.2.9 (antibody, human IgG1, V domains shown)
VH: QVTLKESGPGILQPSQTLSLTCSFSGFSLSTFGLGVGWVRQPSGKGLEWLAHIWWDDDKYYNPALKSRVTVSKETSKNQVFFKIANVDTADSATYYCARLSRGLRRDVVYAMDHWGQGTSVTVSS
VL: DIQMTQTTSSLSASLGDRVTISCRASQDISNYLNWYQQKPDGSVKLLISYVSRLQSGVPSRFRGSGSGTDYSLTISNLDQEDIATYFCQQGIAFPYTFGGGTKLDIK
notes: as for B1
B4: F5.3.6 (antibody, human IgG1, V domains shown)
VH: DVQLQESGPGLVKPSQSQSLTCSVTGYSITSGYYWNWIRQFPGNKLEWMGYISYDGSNNYNPSLKNRISITRDTSKNQFFLKLNSVTTEDTVTYYCARAPLTGDRYWYFDVWGTGTTVTVSS
VL: DIVLTQSPASLAVSLGQRATISCRASQSVSTSSYSYMHWYQQKPGQTPKLLIKYASNLKSGVPARFSGSGSGTDFTLNIHPVEEEDTATYYCQHSWEIPPTFGGGTKLEIK
notes: as for B1
B5: F5.7.1 (antibody, human IgG1, V domains shown)
VH: QVTLKESGPGILQPSQTLSLTCSFSGFSLTTFGMGVGWIRQPSGKGLEWLTHIWWDDDKYYNPALKSRLTISKDTSKNQVFLRIANVDTADTATYYCARVITTGVPYFDYWGQGTTLTVSS
VL: ENVLTQSPAIMSASPGEKVTMTCRASSSVSSSYLYWYQQKSGASPKLWISSTSNLASGVPARFSGSGSGTSYSLTINSVEAEDAATYYCQQYSGYPWTFGGGTKLEIK
notes: as for B1
B6: F4.35.5 (antibody, human IgG1, V domains shown)
VH: EIQLQQSGPELVKPGASVKVSCKASGYAFTSYNMYWVKQSHGKSLEWIGYIDPYNGDTRYNQKFKGKATLTVDKSSSTAYMHLNSLTSEDSAVYYCTRSGTGRDYWGQGTTLTVSS
VL: QIVLTQSPAIMSASPGEKVTMTCSASSSISYMFWFQQKPGSSPRLLIYDTSSLASGVPVRFSGSGSGTSYTLTISRMEAEDAATYYCQQWSNYPYTFGGGTKLEMK
notes: as for B1
B7: F4.22.6 (antibody, human IgG1, V domains shown)
VH: QVQLQQSGPELVKPGASVKISCKASGYAFSSFWMNWVKQRPGQGLEWIGRIYPGDGDTNYNGKFKGKATLTADKSSTTAYMHLSSLTSVDSAVYFCTRSVITAVVDWYFDVWGAGTTVTVSS
VL: QIVLSQSPAILSASPGEKVTLTCRASSSVNFMHWYQQKPGSSPKPWIYATSNLASGAPARFSGSGSGTSYSLTISRVEAEDAAAYYCQQWSSYPIFTFGSGTKLEIK
notes: as for B1
B8: F4.48.12 (antibody, human IgG1, V domains shown)
VH: QMQLKESGPGLVAPSQSLSITCTVSGFSLTDYGVSWIRQPPGKGLEWLGVIWGSGSTFYNSALTSRLSISKDNSKSQVFLKMNSLQTADTAMYFCAKHHYYGGSFAMDYWGQGTSVTVSS
VL: DIQMTQASSSLSASLGDRVTISCKTSQDISNYLNWYQQKPDGTFKLLIHYTSRLHSGVPSRFSGSGSGSDYSLTISNLEREDIATYFCQQGNSLPYTFGGGTKLEMK
notes: as for B1
B9: F4.78.1 (antibody, human IgG1, V domains shown)
VH: QVQIQQSGAELARPGASVKLSCKASGYTFTNYWMQWIKQRPGQGLEWIGAIYPGDGDTRYTQKFKGKATLTADKSSSTAYMQLSSLASEDSAVYYCAREEVWSPYGMDYWGQGTSVTVSS
VL: QIVLTQSPAIMSASPGEKVTITCSASSSVSYMGWFQQKPGTSPKLWIYSTSNLASGVPARFSGSGSGTSYSLTISRMEAEDAATYYCQQRSIYPLTFGAGTKLELK
notes: as for B1
B10: F4.21.2 (antibody, human IgG1, V domains shown)
VH: QVQLKQSGPGLVQPSQSLSITCTVSGFSLSTYGVHWVRQSPGRGLEWLGVIWIGGTTDYNAAFISRLTISKDNSRGQVFFKMDSLQANDTAIYYCARKGYYKYDGGYYYAMDYWGQGTSVTVSS
VL: DIQMTQSSSYLSVSLGGRVTITCKASDHINNWLAWYQQKPGNAPWLLISGATSLETGVPSRFSGSGSGKDYTLSISSLQTEDVATYYCQQYWSTPLTFGAGTKLELK
notes: as for B1
B11: F4.58.6 (antibody, human IgG1, V domains shown)
VH: QVQLQQPGAELVKPGASVKLSCKASGYTFTSYWMHWVKQRPGQGLEWIGEIDPSDSYSNYNQKFKGKATLTVDKSSSTAYMQLSSLTSEDSAVYYCARSNYGSSYGYFDVWGAGTTVTVSS
VL: QIVLTQSPAIMSASPGEKVTMTCSVSSSLSYMHWYQQKPGTSPKRWIYDTSKLASGVPARFSGSGSGTSYSLTISSMEAEDAATYYCHQRSSYPTFGGGTKLEIK
notes: as for B1
B12: F4.41.1 (antibody, human IgG1, V domains shown)
VH: QVQLQQSGAELVRPGTSVKVSCKASGYAFTNYLIEWVKQRPGQGLEWIGVINPGSGDTLYNEKFKGKATLTADKSSTTAYMQLSGLTSDVSAIYFCARSPPITTIVADYFDYWGQGTTLTVSS
VL: DIQMTQTTSSLSASLGDRVTISCRASQDISNYLNWYQQKPDGTVKLLIYYTSRLHSGVPSRFSGSGSGADYSLTISNLEQEDIATYFCQQGKTLPYTFGGGTKLEIK
notes: as for B1
B13: F4.82.11 (antibody, human IgG1, V domains shown)
VH: QVTLKESGPGILQASQTLSLTCSFSGFSLSTFGIGVGWVRQPSGKGLEWLAHIWWNDNKFFNTTLKNRLTLSKDPSNNQVFLKIASVDTADTATYYCARSRSALITTGLYAMDYWGQGTSVTVSS
VL: B12 VL with T8P, A25S, L33V, L46V, Y49N, A69T, T85S, K92F
notes: as for B1
B14: F4.33.12 (antibody, human IgG1, V domains shown)
VH: QVQLQQSGAELVRPGSSVKISCKGSGYAFSSYWMNWVKQRPGQGLEWIGQIYPGDGDTNYNGKFKGKATLTADKSSSTAYMQLSSLTSEDSAVYFCARAGFYYGSDSSMDYWGQGTSVTVSS
VL: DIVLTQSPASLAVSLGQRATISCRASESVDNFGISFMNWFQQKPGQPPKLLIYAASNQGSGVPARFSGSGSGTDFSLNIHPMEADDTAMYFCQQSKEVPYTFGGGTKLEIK
notes: as for B1
B15: F3.133.14 (antibody, human IgG1, V domains shown)
VH: QVQLQQPGAELVMPGASVKLSCKASGYTFTNYWMHWVKQRPGQGLEWIGEIDPSDYYANYNQKFKGKATLTVDKSSSTAYMQLSSLTSEDSAVYYCARSHYYANSYNYWGQGTTLTVSS
VL: EIELTQSPTTMAASPGEKITITCSASSSISSDYLHWYQQKPGFSPKLLIYRTSNLASGLPARFSGSGSGTSYSLTIGTMEAEDVATYYCQQGSSVPRMLTFGAGTKLELK
notes: as for B1

The target in the first assay is T1, human CD19 exon1-3-His tag protein. Nature of the assay: ELISA on coated human CD19 exon 1-3-His. (An ELISA detects its analyte on a solid surface through an enzyme-linked reagent.)
B1: the binding result is given as “no binding (tested: 100 nM)”.
Take B2: the binding result is given as “no binding (tested: 100 nM)”.
On to B3, for which the binding result is listed as “no binding (tested: 100 nM)”.
With B4, the binding result is listed as “no binding (tested: 100 nM)”.
For B5, the binding result was “no binding (tested: 100 nM)”.
For the molecule B6, the binding result is “no binding (tested: 100 nM)”.
Consider B7, for which the binding result is “no binding (tested: 100 nM)”.
The same measure, in the same setting: with B8 the entry was “no binding (tested: 100 nM)”; with B9, “no binding (tested: 100 nM)”; with B10, “no binding (tested: 100 nM)”.
On the same count and under the same terms, with B11 the entry was “no binding (tested: 100 nM)”; with B12, “no binding (tested: 100 nM)”.
Regarding B13, the binding result is listed as “no binding (tested: 100 nM)”.
For B14, the binding result is listed as “no binding (tested: 100 nM)”.
Take B15: the binding result is reported as “no binding (tested: 100 nM)”.

Another assay deals with T2, Human CD19-his protein. The assay can be described thus: SPR Biacore, Ab captured on Protein A, CD19-His analyte. The method, boiled down:
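Antibodies were captured on a Protein A chip at 25 °C in HBS-EP+. Human CD19-His was injected for 240 s at 30 μl/min at 5 concentrations from 200 nM (1:1 dilutions), with dissociation up to 600 s. Data were double-referenced and fitted to a Langmuir 1:1 model for apparent KD.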
(In general: In SPR one partner is held on a chip, and binding of the other changes the refractive index at the surface.)
In general, Kd refers to a measure of binding affinity in units of concentration. Lower therefore signals tighter binding. Broadly, the koff is a measure of how fast the partners let go of each other. What is called kon is the rate constant with which the complex forms. Lower therefore signals slow association. B1 displayed an equilibrium dissociation constant (Kd) of 9.11 nM, a koff of 0.00327 s⁻¹ and a kon of 359000 M⁻¹ s⁻¹.
B2 returned a dissociation constant Kd of 17.6 nM, a koff of 0.00128 s⁻¹ and a kon of 73000 M⁻¹ s⁻¹.
B3 returned a dissociation constant Kd of 15.7 nM, a koff of 0.000402 s⁻¹ and a kon of 25700 M⁻¹ s⁻¹.
On to B4, for which the Kd is 3.49 nM, the off-rate constant (koff) stood at 0.000122 s⁻¹ and the kon was 35100 M⁻¹ s⁻¹.
Take B5: the Kd stood at 1.18 nM, the koff worked out at 0.000225 s⁻¹ and the kon is 192000 M⁻¹ s⁻¹.
The like results for B6 were, in that order, 15.3 nM, 0.00351 s⁻¹ and 229000 M⁻¹ s⁻¹.
For B7, in that order: 5.94 nM, 0.00147 s⁻¹ and 248000 M⁻¹ s⁻¹.
Regarding B8, the affinity, expressed as Kd, was 0.487 nM; the koff amounted to 0.000129 s⁻¹; the kon is 264000 M⁻¹ s⁻¹.
Molecule B9 displayed a dissociation constant Kd of 0.926 nM, a koff of 0.00017 s⁻¹ and a kon of 184000 M⁻¹ s⁻¹.
On to B10, for which the dissociation constant Kd amounted to 0.904 nM, the koff is 0.000167 s⁻¹ and the on-rate (kon) was found to be 185000 M⁻¹ s⁻¹.
Molecule B11 showed a Kd of 13.9 nM, an off-rate constant (koff) of 0.002 s⁻¹ and an association rate constant (kon) of 143000 M⁻¹ s⁻¹.
Consider B12, for which the Kd worked out at 13.4 nM, the koff amounted to 0.00239 s⁻¹ and the kon was found to be 179000 M⁻¹ s⁻¹.
Molecule B13 returned a Kd of 22.7 nM, a koff of 0.000774 s⁻¹ and a kon of 34100 M⁻¹ s⁻¹.
With B14, the Kd was found to be 3.45 nM, the koff was 0.000452 s⁻¹ and the kon was 131000 M⁻¹ s⁻¹.
The molecule B15 displayed a dissociation constant Kd of 0.974 nM, an off-rate constant (koff) of 8.84e-05 s⁻¹ and a kon of 90800 M⁻¹ s⁻¹.
